Reference: patent US20140087995A1 (published 2014)
Numbered stars: 1 amine (or outer) side, 2 acyl side, 3 side chain; on linkers, the order of the positions; unused ones are H or OH. Bridge positions count the residues as written; N and C are the ends. Side chains are listed from the residue outwards. Ends that are not written are not given here. * marks the point of attachment. C20 diacid = O=C(O)CCCCCCCCCCCCCCCCCCC(=O)*; γGlu = O=C(O)[C@H](CCC(=O)[*:2])N[*:1]

T1: rat calcitonin receptor (rat, UniProt P32214 25-516)
T1 construct: whole, on cells; Used as membranes prepared from the transfected cells (Assay VIII); also called rCTR; rat calcitonin (a) receptor
T1 sequence (looked up): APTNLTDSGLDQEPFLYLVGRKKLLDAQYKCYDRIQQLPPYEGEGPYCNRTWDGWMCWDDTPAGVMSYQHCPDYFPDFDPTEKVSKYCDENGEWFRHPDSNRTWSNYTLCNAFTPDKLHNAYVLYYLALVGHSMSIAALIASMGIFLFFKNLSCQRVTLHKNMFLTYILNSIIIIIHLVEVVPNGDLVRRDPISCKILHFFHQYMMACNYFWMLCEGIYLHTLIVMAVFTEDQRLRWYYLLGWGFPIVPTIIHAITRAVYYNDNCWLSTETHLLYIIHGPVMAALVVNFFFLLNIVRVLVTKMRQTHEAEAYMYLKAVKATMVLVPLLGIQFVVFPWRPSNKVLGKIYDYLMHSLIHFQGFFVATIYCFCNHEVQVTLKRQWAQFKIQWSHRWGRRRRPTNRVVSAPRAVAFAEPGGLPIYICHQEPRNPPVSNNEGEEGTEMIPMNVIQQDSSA

T2: rat amylin receptor (rat calcitonin receptor + rat RAMP 3) (rat, UniProt P32214 25-516; Q9JJ73 23-147)
T2 construct: whole, on cells; Used as membranes prepared from the transfected cells (Assay VI); also called rAmylin-R; rat amylin 3(a) receptor
T2 sequence (looked up) 1: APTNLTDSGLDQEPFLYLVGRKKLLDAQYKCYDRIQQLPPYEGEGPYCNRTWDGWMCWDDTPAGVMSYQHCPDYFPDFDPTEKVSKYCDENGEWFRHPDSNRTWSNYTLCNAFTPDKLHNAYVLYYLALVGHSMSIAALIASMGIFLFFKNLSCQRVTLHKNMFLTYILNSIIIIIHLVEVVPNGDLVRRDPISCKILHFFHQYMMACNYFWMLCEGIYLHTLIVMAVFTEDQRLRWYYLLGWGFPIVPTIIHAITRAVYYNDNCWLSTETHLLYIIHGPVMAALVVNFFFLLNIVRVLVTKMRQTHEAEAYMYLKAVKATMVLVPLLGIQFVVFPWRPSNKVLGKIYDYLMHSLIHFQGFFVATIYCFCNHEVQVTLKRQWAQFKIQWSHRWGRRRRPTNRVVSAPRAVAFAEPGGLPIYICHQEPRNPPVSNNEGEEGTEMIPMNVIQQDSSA
T2 sequence (looked up) 2: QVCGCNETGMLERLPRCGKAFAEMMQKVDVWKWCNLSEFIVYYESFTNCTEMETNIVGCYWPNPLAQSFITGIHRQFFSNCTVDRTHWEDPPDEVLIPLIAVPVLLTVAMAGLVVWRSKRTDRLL

T3: human calcitonin receptor (human, UniProt P30988 25-474)
T3 construct: whole, on cells; Used as membranes prepared from the transfected cells (Assay VII); also called hCTR; hCT
T3 sequence (looked up): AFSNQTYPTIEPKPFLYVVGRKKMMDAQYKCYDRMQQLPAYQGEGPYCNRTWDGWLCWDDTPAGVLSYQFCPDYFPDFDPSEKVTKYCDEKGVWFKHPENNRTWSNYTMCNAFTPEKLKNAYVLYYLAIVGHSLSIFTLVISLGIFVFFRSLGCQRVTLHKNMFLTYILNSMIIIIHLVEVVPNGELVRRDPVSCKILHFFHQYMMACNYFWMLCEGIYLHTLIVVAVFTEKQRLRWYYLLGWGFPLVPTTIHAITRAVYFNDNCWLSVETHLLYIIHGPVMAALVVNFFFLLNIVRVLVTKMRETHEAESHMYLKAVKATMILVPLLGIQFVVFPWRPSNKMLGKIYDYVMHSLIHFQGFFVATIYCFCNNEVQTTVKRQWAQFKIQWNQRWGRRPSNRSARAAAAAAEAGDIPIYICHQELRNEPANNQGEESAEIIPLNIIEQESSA

B1: N^ε1-[(4S)-4-carboxy-4-(19-carboxynonadecanoylamino)butanoyl]-[His14,Arg17,Pro21,Pro27,Pro31,Pro34]-h-amylin (peptide)
peptide: K([γGlu-C20 diacid])CNTATCATQRLAHFLRHSSPNFGAIPSSTPVGPNTY-NH2
modifications: disulfide 2-7; N-terminus assumed
SMILES: CC[C@H](C)[C@H](NC(=O)[C@H](C)NC(=O)CNC(=O)[C@H](Cc1ccccc1)NC(=O)[C@H](CC(N)=O)NC(=O)[C@@H]1CCCN1C(=O)[C@H](CO)NC(=O)[C@H](CO)NC(=O)[C@H](Cc1c[nH]cn1)NC(=O)[C@H](CCCNC(=N)N)NC(=O)[C@H](CC(C)C)NC(=O)[C@H](Cc1ccccc1)NC(=O)[C@H](Cc1c[nH]cn1)NC(=O)[C@H](C)NC(=O)[C@H](CC(C)C)NC(=O)[C@H](CCCNC(=N)N)NC(=O)[C@H](CCC(N)=O)NC(=O)[C@@H](NC(=O)[C@H](C)NC(=O)[C@@H]1CSSC[C@H](NC(=O)[C@@H](N)CCCCNC(=O)CC[C@H](NC(=O)CCCCCCCCCCCCCCCCCCC(=O)O)C(=O)O)C(=O)N[C@@H](CC(N)=O)C(=O)N[C@@H]([C@@H](C)O)C(=O)N[C@@H](C)C(=O)N[C@@H]([C@@H](C)O)C(=O)N1)[C@@H](C)O)C(=O)N1CCC[C@H]1C(=O)N[C@@H](CO)C(=O)N[C@@H](CO)C(=O)N[C@H](C(=O)N1CCC[C@H]1C(=O)N[C@H](C(=O)NCC(=O)N1CCC[C@H]1C(=O)N[C@@H](CC(N)=O)C(=O)N[C@H](C(=O)N[C@@H](Cc1ccc(O)cc1)C(N)=O)[C@@H](C)O)C(C)C)[C@@H](C)O
notes: not restated for each compound
B2: N^ε1-[(4S)-4-carboxy-4-[[(4S)-4-carboxy-4-(19-carboxynonadecanoylamino)butanoyl]amino]butanoyl]-[Arg17,Pro21,Pro27,Pro31,Pro34,Arg35]-h-amylin (peptide)
peptide: K([γGlu-γGlu-C20 diacid])CNTATCATQRLANFLRHSSPNFGAIPSSTPVGPRTY-NH2
modifications: disulfide 2-7; N-terminus assumed
SMILES: CC[C@H](C)[C@H](NC(=O)[C@H](C)NC(=O)CNC(=O)[C@H](Cc1ccccc1)NC(=O)[C@H](CC(N)=O)NC(=O)[C@@H]1CCCN1C(=O)[C@H](CO)NC(=O)[C@H](CO)NC(=O)[C@H](Cc1c[nH]cn1)NC(=O)[C@H](CCCNC(=N)N)NC(=O)[C@H](CC(C)C)NC(=O)[C@H](Cc1ccccc1)NC(=O)[C@H](CC(N)=O)NC(=O)[C@H](C)NC(=O)[C@H](CC(C)C)NC(=O)[C@H](CCCNC(=N)N)NC(=O)[C@H](CCC(N)=O)NC(=O)[C@@H](NC(=O)[C@H](C)NC(=O)[C@@H]1CSSC[C@H](NC(=O)[C@@H](N)CCCCNC(=O)CC[C@H](NC(=O)CC[C@H](NC(=O)CCCCCCCCCCCCCCCCCCC(=O)O)C(=O)O)C(=O)O)C(=O)N[C@@H](CC(N)=O)C(=O)N[C@@H]([C@@H](C)O)C(=O)N[C@@H](C)C(=O)N[C@@H]([C@@H](C)O)C(=O)N1)[C@@H](C)O)C(=O)N1CCC[C@H]1C(=O)N[C@@H](CO)C(=O)N[C@@H](CO)C(=O)N[C@H](C(=O)N1CCC[C@H]1C(=O)N[C@H](C(=O)NCC(=O)N1CCC[C@H]1C(=O)N[C@@H](CCCNC(=N)N)C(=O)N[C@H](C(=O)N[C@@H](Cc1ccc(O)cc1)C(N)=O)[C@@H](C)O)C(C)C)[C@@H](C)O
notes: as for B1
B3: N^ε1-[(4S)-4-carboxy-4-[[(4S)-4-carboxy-4-(19-carboxynonadecanoylamino)butanoyl]amino]butanoyl]-[Asp14,Arg17,Pro21,Pro27,Pro34,Arg35]-h-amylin (peptide)
peptide: K([γGlu-γGlu-C20 diacid])CNTATCATQRLADFLRHSSPNFGAIPSSTNVGPRTY-NH2
modifications: disulfide 2-7
notes: not restated for each compound; also called compound 130
B4: N^ε1-[(4S)-4-carboxy-4-[[(4S)-4-carboxy-4-(19-carboxynonadecanoylamino)butanoyl]amino]butanoyl]-[Glu14,Arg17,Pro21,Pro27,His34,Glu35]-h-amylin (peptide)
peptide: K([γGlu-γGlu-C20 diacid])CNTATCATQRLAEFLRHSSPNFGAIPSSTNVGHETY-NH2
modifications: disulfide 2-7; N-terminus assumed
SMILES: CC[C@H](C)[C@H](NC(=O)[C@H](C)NC(=O)CNC(=O)[C@H](Cc1ccccc1)NC(=O)[C@H](CC(N)=O)NC(=O)[C@@H]1CCCN1C(=O)[C@H](CO)NC(=O)[C@H](CO)NC(=O)[C@H](Cc1c[nH]cn1)NC(=O)[C@H](CCCNC(=N)N)NC(=O)[C@H](CC(C)C)NC(=O)[C@H](Cc1ccccc1)NC(=O)[C@H](CCC(=O)O)NC(=O)[C@H](C)NC(=O)[C@H](CC(C)C)NC(=O)[C@H](CCCNC(=N)N)NC(=O)[C@H](CCC(N)=O)NC(=O)[C@@H](NC(=O)[C@H](C)NC(=O)[C@@H]1CSSC[C@H](NC(=O)[C@@H](N)CCCCNC(=O)CC[C@H](NC(=O)CC[C@H](NC(=O)CCCCCCCCCCCCCCCCCCC(=O)O)C(=O)O)C(=O)O)C(=O)N[C@@H](CC(N)=O)C(=O)N[C@@H]([C@@H](C)O)C(=O)N[C@@H](C)C(=O)N[C@@H]([C@@H](C)O)C(=O)N1)[C@@H](C)O)C(=O)N1CCC[C@H]1C(=O)N[C@@H](CO)C(=O)N[C@@H](CO)C(=O)N[C@H](C(=O)N[C@@H](CC(N)=O)C(=O)N[C@H](C(=O)NCC(=O)N[C@@H](Cc1c[nH]cn1)C(=O)N[C@@H](CCC(=O)O)C(=O)N[C@H](C(=O)N[C@@H](Cc1ccc(O)cc1)C(N)=O)[C@@H](C)O)C(C)C)[C@@H](C)O
notes: as for B1

How the values were obtained:
[1] = target: T1, rat calcitonin receptor; assay: SPA competition binding, displacement of 125I-calcitonin from membranes of BHK tk'ts 13 cells transfected with rat calcitonin receptor (Assay VIII)
[2] = target: T1, rat calcitonin receptor; assay: ratio of IC50 on rat calcitonin receptor (Assay VIII) to IC50 on rat amylin receptor (Assay VI)
[3] = target: T2, rat amylin receptor (rat calcitonin …); assay: SPA competition binding, displacement of 125I-rat amylin from membranes of BHK tk'ts 13 cells transfected with rat calcitonin receptor + rat RAMP 3 (Assay VI)
[4] = target: T3, human calcitonin receptor; assay: ratio of IC50 on human calcitonin receptor (Assay VII) to IC50 on human amylin receptor (Assay V)
Description: The resulting pellet was resuspended, homogenized and centrifuged (20.000 rpm, 15 min) in a buffer containing 20 mM Na-HEPES and 0.1 mM EDTA (pH 7.4, buffer 2). The resulting pellet was resuspended in buffer 2 and protein concentration was measured (BCA protein Assay, Pierce). The homogenate was kept cold during the whole procedure. The membranes were kept at −80° C. until use. The assay was performed in a 384 well Optiplate (PerkinElmer) in a total volume of 40 ul. Membranes were mixed with SPA beads. Final concentration of membranes 35 ng/μL final and SPA beads was 0.05 mg/well. Test-compounds were dissolved in DMSO and further diluted in assay buffer (50 mM Hepes, pH 7.4, 1 mM CaCl2, 5 mM MgCl₂, 0.1% OA and 0.02% Tween20). […] The final mixture was incubated with shaking at 400 rpm for 120 min at 25° C. prior to centrifugation (1500 rpm, 10 min). Samples were analyzed on TopCounter™ (Packard). The IC₅₀ was calculated using (one site binding competition analysis) GraphPad Prism5 as a measure of receptor affinity.
Membranes were prepared in the following way; the cells were rinsed with PBS and incubated with Versene for approximately 5 min before harvesting. The cells were flushed with PBS and the cell-suspension was centrifuged for 5 min at 1000 rpm. Cells were homogenized (Ultrathurrax) in a buffer containing 20 mM Na-HEPES and 10 mM EDTA (pH 7.4) and centrifuged at 20.000 rpm for 15 min. The resulting pellet was resuspended, homogenized and centrifuged (20.000 rpm, 15 min) in a buffer containing 20 mM Na-HEPES and 0.1 mM EDTA (pH 7.4, buffer 2). The resulting pellet was resuspended in buffer 2 and protein concentration was measured (BCA protein Assay, Pierce). The homogenate was kept cold during the whole procedure. The membranes were kept at −80° C. until use. Assay was performed in a 384 well Optiplate (PerkinElmer) in a total volume of 40 ul. Membranes were mixed with SPA beads.

Binder	IC50 [1]	Ratio rCT/rAmylin binding [2]	IC50 [3]	Ratio hCT/hAmylin binding [4]
B1	9.05 nM	72.4	0.125 nM	24.8
B2	52.4 nM	137	0.381 nM	48.6
B3	223 nM	240	0.93 nM	280
K([γGlu-γGlu-C20 diacid])CNTATCATQRLADFLRHSSPNFGAIPSSTNVGPETY-NH2 (disulfide 2-7, not restated for each compound)	31.9 nM	98.5	0.324 nM	49.8
B4	498 nM	159	3.14 nM	29.1
K([γGlu-γGlu-C20 diacid])CNTATCATQRLAEFLRHSSPNFGAIPSSTNVGPHTY-NH2 (disulfide 2-7 (inferred), not restated for each compound)	21 nM	73	0.288 nM	27.3
K([γGlu-γGlu-C20 diacid])CNTATCATQRLAEFLRHSSPNFGAILSSTPVGPETY-NH2 (disulfide 2-7 (inferred), not restated for each compound)	33.5 nM	74.7	0.449 nM	22.6
